Reference: US7521477B2, “Vitamin C derivatives with peptide, preparation method thereof and composition comprising the same” (Peptron Co., Ltd., priority 2003, dated 2009)
Numbered stars: 1 amine (or outer) side, 2 acyl side, 3 side chain; on linkers, the order of the positions; unused ones are H or OH. Ends that are not written are not given here. * marks the point of attachment. Suc = O=C(CCC(=O)[*:2])[*:1]; Propyl = CCC*

Experiments:
[1] = Color change test (storage stability in solution); assay type: physicochemical; design: key: −: no or very slight noticeable change (colorless or light yellow); +: slight; ++: moderate; +++: extreme; conditions: 50 mM in 50 mM potassium phosphate pH 7.0, 40° C.
Description: The compounds I to IV synthesized in Example 4 and vitamin C (Sigma Aldrich) were independently dissolved in 50 mM potassium phosphate of pH 7.0 at a concentration of 50 mM, and stored in an incubator at 40° C. for three weeks. Thereafter, the compounds and vitamin C were evaluated for color change according to the standard criteria, and the results are given in Table 2, below.

mushroom tyrosinase = mushroom tyrosinase (Agaricus bisporus, UniProt C7FF04); test: Inhibitory activity against tyrosinase; assay type: biochemical, mushrooms; conditions: tyrosine substrate, pH 6.8, 37° C.; read-out: IC50 (compound concentration to inhibit 50% of tyrosinase activity)
Description: Tyrosinase was purchased from the Sigma Company, which was isolated from mushrooms and purified. Tyrosin as a substrate for the purified mushroom tyrosinase was prepared by dissolving in 0.05 M potassium phosphate buffer (pH 6.8) in an amount of 0.3 mg/ml. The compounds and vitamin C were dissolved in distilled water at a concentration of 10 mM, and diluted with distilled water to suitable concentrations.
0.5 ml of the tyrosine solution and 0.5 ml of a buffer were put into a test tube, and 0.5 ml of the diluted compound or vitamin C was added to the test tube. After each test tube was incubated in an incubator at 37° C. for 10 min, 0.05 ml of tyrosinase (2,000 U/ml) was added to each test tube, followed by incubation at 37° C. for 10 min. A sample added with 0.5 ml distilled water instead of the compound was used as a control. Thereafter, each test tube was rapidly cooled on ice to terminate the reaction. Absorbance at 475 nm was measured using a spectrophotometer. Inhibition rate against tyrosinase was calculated using the measured absorbance according to the following Equation 1, and IC50 values (compound concentration to inhibit 50% of tyrosinase activity) were then determined. Inhibition rate (%)=(A−B)/A×100 Equation 1
wherein, A is an absorbance at 475 nm of a sample not containing an inhibitor, and B is an absorbance at 475 nm of a sample containing an inhibitor.

male Hartley guinea pigs [2] = test: Phototoxicity test
Description: Each of the test samples was applied to the skin of guinea pigs, and the guinea pigs were exposed to ultraviolet A (UVA) radiation. Then, potency to induce phototoxicity was evaluated. Induction of phototoxicity, which is an abnormal response of the skin to a photo-stimulus such as ultraviolet or visible light, occurs non-immunologically by a chemical. Unlike the allergic response, the degree of phototoxicity can be expected by sufficient intensity of radiation and drugs.
CP and 8-MOP were prepared at a final concentration of 10% in DMSO and then diluted to 1%. Each of guinea pigs was fixed on a fixing plate, and the skin of the guinea pig was covered with 50 μl of each of the test samples. Then, the right area of the skin was not exposed to UV light, and the left area of the skin was exposed to UVA light (320 to 380 nm) of 15 J/cm^2, which was irradiated in a distance of about 10 cm for about 2 hrs. 24 hrs, 48 hr and 72 hrs after UVA irradiation, photosensitization in the treatment group was evaluated in comparison with that in the positive control groups.

male Hartley guinea pigs [3] = test: Photosensitization test (Adjuvant & Strip method); assay type: in vivo
Description: A photosensitization test for the compound II-4 was carried out according to an Adjuvant & Strip method using male Hartley guinea pigs. After four sites to be sensitized were selected at the cervical and dorsal skin of the guinea pigs, an emulsion of WFI and FCA were intradermally injected to each of the selected sites. The sensitized sites were stripped only in a degree of inducing weak erythema, and covered with 0.01 PBS (excipient group), the compound II-4 (test group) and CP (chlorpromazine; positive control group) in a non-occlusive manner. After two hours, long wave-length UV light of about 10 J/cm^2 was irradiated to the test substance-applied sites. 24 hrs, 48 hrs and 72 hrs after UV irradiation, signs of photosensitization were investigated.

[4] = Areas exposed to UVA, applied concentration 0.1%
[5] = Areas exposed to UVA, applied concentration 1%
[6] = Areas exposed to UVA, applied concentration 10%
[7] = Areas not exposed to UVA, applied concentration 0.1%
[8] = Areas not exposed to UVA, applied concentration 1%
[9] = Areas not exposed to UVA, applied concentration 10%

Chain of mushroom tyrosinase (C7FF04 1-392): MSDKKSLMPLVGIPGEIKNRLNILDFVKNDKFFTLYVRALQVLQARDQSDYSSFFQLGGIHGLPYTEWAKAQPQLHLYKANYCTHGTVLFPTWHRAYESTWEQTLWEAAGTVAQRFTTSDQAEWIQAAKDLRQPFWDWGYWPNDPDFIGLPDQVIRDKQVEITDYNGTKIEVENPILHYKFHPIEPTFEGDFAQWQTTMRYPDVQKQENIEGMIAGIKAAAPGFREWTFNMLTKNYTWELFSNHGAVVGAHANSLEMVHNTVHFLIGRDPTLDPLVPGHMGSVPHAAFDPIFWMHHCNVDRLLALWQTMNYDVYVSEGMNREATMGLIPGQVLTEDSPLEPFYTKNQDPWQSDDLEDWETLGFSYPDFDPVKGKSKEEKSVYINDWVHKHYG

Row | Molecule | Color change After 1 week [1] | Color change After 2 weeks [1] | Color change After 3 weeks [1] | further results
1 | 2-(propyl-glycyl-lysyl-histidine)ascorbic acid [IV-2] | − | + | ++ | 
2 | 2-(propyl-lysyl-threonyl-threonyl-lysyl-serine(SEQ ID NO:1))ascorbic acid ({ascorbic acid-Propyl}-KTTKS) [IV-4] | − | + | ++ | 
3 | 5,6-di(succinyl-glycyl-histidyl-lysine)ascorbic acid [III-1] | − | + | + | 
4 | 5,6-di(succinyl-glycyl-lysyl-histidine)ascorbic acid [III-2] | − | + | + | 
5 | 5,6-di(succinyl-lysyl-threonyl-threonyl-lysyl-serine(SEQ ID NO:1))ascorbic acid ({ascorbic acid-Suc}-KTTKS; also: two succinyl-linked peptides on one ascorbic acid) [III-4] | − | + | + | 
6 | 5-(succinyl-lysyl-threonyl-threonyl-lysyl-serine)ascorbic acid [Compound I-4] | − | + | + | 
7 | 6-(succinyl-glycyl-lysyl-histidine)ascorbic acid [II-2] | − | + | + | IC50 (mushroom tyrosinase): 700 µM
8 | CN(C)CCCN1c2ccccc2Sc2ccc(Cl)cc21 [CP, Chlorpromazine] |  |  |  | Total score/Site No. (male Hartley guinea pigs [2]; male, Hartley, guinea pig, in vivo): 0 + 0/10; Stimulation index (male Hartley guinea pigs [3]; Areas exposed to UVA): 5.8; Stimulation index (male Hartley guinea pigs [3]; Areas not exposed to UVA): 0.0; Photosensitization index (male Hartley guinea pigs [3]; index of UVA irradiation site minus index of non-irradiation site): 5.8
9 | COc1c2occc2cc2ccc(=O)oc12 [Compound 8-MOP, 8-methoxypsoralen] |  |  |  | Evaluation (male Hartley guinea pigs [2]; [4]): Clearly irritating; Mean score (male Hartley guinea pigs [2]; [4]): 2.3; Evaluation (male Hartley guinea pigs [2]; [5]): Extremely irritating; Mean score (male Hartley guinea pigs [2]; [5]): 3.2; Evaluation (male Hartley guinea pigs [2]; [6]): Extremely irritating; Mean score (male Hartley guinea pigs [2]; [6]): 4.0; Evaluation (male Hartley guinea pigs [2]; [7]): Practically non-irritating; Mean score (male Hartley guinea pigs [2]; [7]): 0; Evaluation (male Hartley guinea pigs [2]; [8]): Clearly irritating; Mean score (male Hartley guinea pigs [2]; [8]): 1.4; Evaluation (male Hartley guinea pigs [2]; [9]): Clearly irritating; Mean score (male Hartley guinea pigs [2]; [9]): 1.4
10 | NCCCCC(NC(=O)C(Cc1cnc[nH]1)NC(=O)CNC(=O)CCC(=O)OC(CO)C1OC(=O)C(O)=C1O)C(=O)O (centres unmarked) [Compound I-1, 5-(succinyl-glycyl-histidyl-lysine)ascorbic acid] | − | + | + | 
11 | NCCCC[C@H](NC(=O)CNC(=O)CCC(=O)OC(CO)C1OC(=O)C(O)=C1O)C(=O)N[C@@H](Cc1c[nH]cn1)C(=O)O (some centres unmarked) [Compound I-2, 5-(succinyl-glycyl-lysyl-histidine)ascorbic acid] | − | + | + | 
12 | O=C(CCC(=O)OC(CO)C1OC(=O)C(O)=C1O)NCC(=O)N1CCCC1C(=O)N1CC(O)CC1C(=O)O (centres unmarked) [Compound I-3, 5-(succinyl-glycyl-prolyl-hydroxyproline)ascorbic acid] | − | + | + | 
13 | NCCCCC(NC(=O)C(Cc1cnc[nH]1)NC(=O)CNC(=O)CCC(=O)OCC(O)C1OC(=O)C(O)=C1O)C(=O)O (centres unmarked) [II-1, 6-(succinyl-glycyl-histidyl-lysine)ascorbic acid] | − | + | + | IC50 (mushroom tyrosinase): 650 µM
14 | O=C(CCC(=O)OCC(O)C1OC(=O)C(O)=C1O)NCC(=O)N1CCCC1C(=O)N1CC(O)CC1C(=O)O (centres unmarked) [II-3, 6-(succinyl-glycyl-prolyl-hydroxyproline)ascorbic acid] | − | + | + | 
15 | O=C(CCC(=O)OCC(OC(=O)CCC(=O)NCC(=O)N1CCCC1C(=O)N1CC(O)CC1C(=O)O)C1OC(=O)C(O)=C1O)NCC(=O)N1CCCC1C(=O)N1CC(O)CC1C(=O)O (centres unmarked) [III-3, 5,6-(succinyl-glycyl-prolyl-hydroxyproline)ascorbic acid] | − | + | + | 
16 | NCCCCC(NC(=O)C(Cc1cnc[nH]1)NC(=O)CNCCCOC1=C(O)C(C(O)CO)OC1=O)C(=O)O (centres unmarked) [IV-1, 2-(propyl-glycyl-histidyl-lysine)ascorbic acid] | − | + | ++ | 
17 | O=C1OC(C(O)CO)C(O)=C1OCCCNCC(=O)N1CCC[C@H]1C(=O)N1CC(O)C[C@H]1C(=O)O (some centres unmarked) [IV-3, 2-(propyl-glycyl-prolyl-hydroxyproline)ascorbic acid] | − | + | ++ | 
18 | O=C1O[C@H]([C@@H](O)CO)C(O)=C1O [Vitamin C, ascorbic acid] | + | +++ |  | 
